From patent US20180155451A1 (published 2018) come the findings set out here.

To fix the notation:
B1: GpH7-B3 variant L234_07I/GpL16-k0 (antibody, human IgG1, kappa)
heavy: not shown
light: DIVMTQSPLSLPVTPGEPASISCQASESLVHSNRNTYLHWYLQKPGQSPQLLIYKVSNRFSGVPDRFSGSGSGTDFTLKISRVEAEDVGVYYCSQNTHVPPTFGQGTKVEIERTVAAPSVFIFPPSDEQLKSGTASVVCLLNNFYPREAKVQWKVDNALQSGNSQESVTEQDSKDSTYSLSSTLTLSKADYEKHKVYACEVTHQGLSSPVTKSFNRGEC
notes: homodimerized; also called Ho Ab L234_07I
B2: GpH7-B3 variant P271_07I/GpL16-k0 (antibody, human IgG1, kappa)
heavy: not shown
light: DIVMTQSPLSLPVTPGEPASISCQASESLVHSNRNTYLHWYLQKPGQSPQLLIYKVSNRFSGVPDRFSGSGSGTDFTLKISRVEAEDVGVYYCSQNTHVPPTFGQGTKVEIERTVAAPSVFIFPPSDEQLKSGTASVVCLLNNFYPREAKVQWKVDNALQSGNSQESVTEQDSKDSTYSLSSTLTLSKADYEKHKVYACEVTHQGLSSPVTKSFNRGEC
notes: homodimerized; also called Ho Ab P271_07I
B3: GpH7-B3 variant P238_04F/GpL16-k0 (antibody, human IgG1, kappa)
heavy: not shown
light: DIVMTQSPLSLPVTPGEPASISCQASESLVHSNRNTYLHWYLQKPGQSPQLLIYKVSNRFSGVPDRFSGSGSGTDFTLKISRVEAEDVGVYYCSQNTHVPPTFGQGTKVEIERTVAAPSVFIFPPSDEQLKSGTASVVCLLNNFYPREAKVQWKVDNALQSGNSQESVTEQDSKDSTYSLSSTLTLSKADYEKHKVYACEVTHQGLSSPVTKSFNRGEC
notes: homodimerized; also called Ho Ab P238_04F
B4: GpH7-B3 variant P271_12R/GpL16-k0 (antibody, human IgG1, kappa)
heavy: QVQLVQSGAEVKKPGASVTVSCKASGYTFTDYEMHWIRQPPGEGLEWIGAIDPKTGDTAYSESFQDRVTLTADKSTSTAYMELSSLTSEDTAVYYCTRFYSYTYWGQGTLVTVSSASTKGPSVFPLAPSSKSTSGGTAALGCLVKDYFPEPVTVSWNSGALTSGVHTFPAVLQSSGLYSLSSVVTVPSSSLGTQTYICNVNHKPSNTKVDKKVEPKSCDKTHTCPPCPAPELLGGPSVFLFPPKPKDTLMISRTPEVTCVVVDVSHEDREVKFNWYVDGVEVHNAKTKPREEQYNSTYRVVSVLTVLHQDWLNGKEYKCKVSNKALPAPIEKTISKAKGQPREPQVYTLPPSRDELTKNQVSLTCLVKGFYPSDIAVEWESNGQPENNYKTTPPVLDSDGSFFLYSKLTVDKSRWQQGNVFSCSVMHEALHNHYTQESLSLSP
light: DIVMTQSPLSLPVTPGEPASISCQASESLVHSNRNTYLHWYLQKPGQSPQLLIYKVSNRFSGVPDRFSGSGSGTDFTLKISRVEAEDVGVYYCSQNTHVPPTFGQGTKVEIERTVAAPSVFIFPPSDEQLKSGTASVVCLLNNFYPREAKVQWKVDNALQSGNSQESVTEQDSKDSTYSLSSTLTLSKADYEKHKVYACEVTHQGLSSPVTKSFNRGEC
notes: homodimerized; also called Ho Ab P271_12R
B5: GpH7-B3 variant L328_20W/GpL16-k0 (antibody, human IgG1, kappa)
heavy: not shown
light: DIVMTQSPLSLPVTPGEPASISCQASESLVHSNRNTYLHWYLQKPGQSPQLLIYKVSNRFSGVPDRFSGSGSGTDFTLKISRVEAEDVGVYYCSQNTHVPPTFGQGTKVEIERTVAAPSVFIFPPSDEQLKSGTASVVCLLNNFYPREAKVQWKVDNALQSGNSQESVTEQDSKDSTYSLSSTLTLSKADYEKHKVYACEVTHQGLSSPVTKSFNRGEC
notes: homodimerized; also called Ho Ab L328_20W
B6: GpH7-B3 variant P238_10E/GpL16-k0 (antibody, human IgG1, kappa)
heavy: not shown
light: DIVMTQSPLSLPVTPGEPASISCQASESLVHSNRNTYLHWYLQKPGQSPQLLIYKVSNRFSGVPDRFSGSGSGTDFTLKISRVEAEDVGVYYCSQNTHVPPTFGQGTKVEIERTVAAPSVFIFPPSDEQLKSGTASVVCLLNNFYPREAKVQWKVDNALQSGNSQESVTEQDSKDSTYSLSSTLTLSKADYEKHKVYACEVTHQGLSSPVTKSFNRGEC
notes: homodimerized; also called Ho Ab P238_10E
B7: GpH7-B3 variant L328_19Q/GpL16-k0 (antibody, human IgG1, kappa)
heavy: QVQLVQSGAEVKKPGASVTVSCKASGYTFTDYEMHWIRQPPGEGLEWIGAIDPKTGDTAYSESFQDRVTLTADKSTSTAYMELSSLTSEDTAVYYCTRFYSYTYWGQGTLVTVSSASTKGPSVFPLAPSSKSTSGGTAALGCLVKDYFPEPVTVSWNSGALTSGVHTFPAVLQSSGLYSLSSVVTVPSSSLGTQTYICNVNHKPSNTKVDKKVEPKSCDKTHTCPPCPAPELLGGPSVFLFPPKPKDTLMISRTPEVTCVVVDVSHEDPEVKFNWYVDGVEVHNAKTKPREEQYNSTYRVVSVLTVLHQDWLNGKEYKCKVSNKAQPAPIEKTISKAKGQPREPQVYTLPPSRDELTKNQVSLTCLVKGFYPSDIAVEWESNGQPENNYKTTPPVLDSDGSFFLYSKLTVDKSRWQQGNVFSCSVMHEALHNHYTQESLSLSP
light: DIVMTQSPLSLPVTPGEPASISCQASESLVHSNRNTYLHWYLQKPGQSPQLLIYKVSNRFSGVPDRFSGSGSGTDFTLKISRVEAEDVGVYYCSQNTHVPPTFGQGTKVEIERTVAAPSVFIFPPSDEQLKSGTASVVCLLNNFYPREAKVQWKVDNALQSGNSQESVTEQDSKDSTYSLSSTLTLSKADYEKHKVYACEVTHQGLSSPVTKSFNRGEC
notes: homodimerized; also called Ho Ab L328_19Q
B8: GpH7-B3 variant L328_03V/GpL16-k0 (antibody, human IgG1, kappa)
heavy: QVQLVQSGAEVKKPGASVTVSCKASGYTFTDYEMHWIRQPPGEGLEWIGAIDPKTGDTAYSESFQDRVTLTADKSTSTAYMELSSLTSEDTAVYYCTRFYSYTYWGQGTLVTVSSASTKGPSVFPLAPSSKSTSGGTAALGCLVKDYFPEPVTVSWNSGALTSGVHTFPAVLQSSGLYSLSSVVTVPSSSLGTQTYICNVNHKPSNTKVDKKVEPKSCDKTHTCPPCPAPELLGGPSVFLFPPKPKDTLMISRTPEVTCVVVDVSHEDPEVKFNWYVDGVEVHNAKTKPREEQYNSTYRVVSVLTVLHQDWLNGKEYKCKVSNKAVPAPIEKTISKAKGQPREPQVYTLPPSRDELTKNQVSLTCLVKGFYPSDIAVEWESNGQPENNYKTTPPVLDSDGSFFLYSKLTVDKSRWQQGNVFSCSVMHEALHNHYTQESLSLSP
light: DIVMTQSPLSLPVTPGEPASISCQASESLVHSNRNTYLHWYLQKPGQSPQLLIYKVSNRFSGVPDRFSGSGSGTDFTLKISRVEAEDVGVYYCSQNTHVPPTFGQGTKVEIERTVAAPSVFIFPPSDEQLKSGTASVVCLLNNFYPREAKVQWKVDNALQSGNSQESVTEQDSKDSTYSLSSTLTLSKADYEKHKVYACEVTHQGLSSPVTKSFNRGEC
notes: homodimerized; also called Ho Ab L328_03V
B9: GpH7-B3 variant P271_06M/GpL16-k0 (antibody, human IgG1, kappa)
heavy: not shown
light: DIVMTQSPLSLPVTPGEPASISCQASESLVHSNRNTYLHWYLQKPGQSPQLLIYKVSNRFSGVPDRFSGSGSGTDFTLKISRVEAEDVGVYYCSQNTHVPPTFGQGTKVEIERTVAAPSVFIFPPSDEQLKSGTASVVCLLNNFYPREAKVQWKVDNALQSGNSQESVTEQDSKDSTYSLSSTLTLSKADYEKHKVYACEVTHQGLSSPVTKSFNRGEC
notes: homodimerized; also called Ho Ab P271_06M
B10: GpH7-B3 variant L234_15Y/GpL16-k0 (antibody, human IgG1, kappa)
heavy: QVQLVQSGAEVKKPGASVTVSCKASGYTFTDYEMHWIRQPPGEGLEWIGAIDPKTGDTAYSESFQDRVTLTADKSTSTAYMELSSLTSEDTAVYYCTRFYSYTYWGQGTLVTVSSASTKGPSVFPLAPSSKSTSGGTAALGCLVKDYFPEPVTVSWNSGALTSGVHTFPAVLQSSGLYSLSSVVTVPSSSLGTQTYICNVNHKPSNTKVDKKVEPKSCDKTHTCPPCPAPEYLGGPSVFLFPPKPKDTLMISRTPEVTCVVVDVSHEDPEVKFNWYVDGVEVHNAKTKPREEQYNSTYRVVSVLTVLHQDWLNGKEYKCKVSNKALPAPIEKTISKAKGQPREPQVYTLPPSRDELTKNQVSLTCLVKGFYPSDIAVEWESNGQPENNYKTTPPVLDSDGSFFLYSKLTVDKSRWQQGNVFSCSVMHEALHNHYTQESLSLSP
light: DIVMTQSPLSLPVTPGEPASISCQASESLVHSNRNTYLHWYLQKPGQSPQLLIYKVSNRFSGVPDRFSGSGSGTDFTLKISRVEAEDVGVYYCSQNTHVPPTFGQGTKVEIERTVAAPSVFIFPPSDEQLKSGTASVVCLLNNFYPREAKVQWKVDNALQSGNSQESVTEQDSKDSTYSLSSTLTLSKADYEKHKVYACEVTHQGLSSPVTKSFNRGEC
notes: homodimerized; also called Ho Ab L234_15Y; GpH7-B3-01-15Y/GpL16-k0
B11: GpH7-B3 variant L328_10E/GpL16-k0 (antibody, human IgG1, kappa)
heavy: not shown
light: DIVMTQSPLSLPVTPGEPASISCQASESLVHSNRNTYLHWYLQKPGQSPQLLIYKVSNRFSGVPDRFSGSGSGTDFTLKISRVEAEDVGVYYCSQNTHVPPTFGQGTKVEIERTVAAPSVFIFPPSDEQLKSGTASVVCLLNNFYPREAKVQWKVDNALQSGNSQESVTEQDSKDSTYSLSSTLTLSKADYEKHKVYACEVTHQGLSSPVTKSFNRGEC
notes: homodimerized; also called Ho Ab L328_10E
B12: GpH7-B3 variant P238_08L/GpL16-k0 (antibody, human IgG1, kappa)
heavy: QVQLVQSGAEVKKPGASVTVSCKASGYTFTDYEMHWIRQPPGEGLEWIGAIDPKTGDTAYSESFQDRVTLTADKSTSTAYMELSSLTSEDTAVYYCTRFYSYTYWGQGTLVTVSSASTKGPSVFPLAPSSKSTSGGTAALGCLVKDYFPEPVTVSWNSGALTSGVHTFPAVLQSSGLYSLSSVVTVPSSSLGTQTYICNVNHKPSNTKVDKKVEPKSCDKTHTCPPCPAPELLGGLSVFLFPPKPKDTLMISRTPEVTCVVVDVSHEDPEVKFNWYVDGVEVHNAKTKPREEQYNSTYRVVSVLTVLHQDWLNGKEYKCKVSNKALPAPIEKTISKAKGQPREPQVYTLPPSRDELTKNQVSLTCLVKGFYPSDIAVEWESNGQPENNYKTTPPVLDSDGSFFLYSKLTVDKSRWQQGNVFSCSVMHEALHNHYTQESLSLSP
light: DIVMTQSPLSLPVTPGEPASISCQASESLVHSNRNTYLHWYLQKPGQSPQLLIYKVSNRFSGVPDRFSGSGSGTDFTLKISRVEAEDVGVYYCSQNTHVPPTFGQGTKVEIERTVAAPSVFIFPPSDEQLKSGTASVVCLLNNFYPREAKVQWKVDNALQSGNSQESVTEQDSKDSTYSLSSTLTLSKADYEKHKVYACEVTHQGLSSPVTKSFNRGEC
notes: homodimerized; also called Ho Ab P238_08L
B13: GpH7-B3 variant P238_06M/GpL16-k0 (antibody, human IgG1, kappa)
heavy: not shown
light: DIVMTQSPLSLPVTPGEPASISCQASESLVHSNRNTYLHWYLQKPGQSPQLLIYKVSNRFSGVPDRFSGSGSGTDFTLKISRVEAEDVGVYYCSQNTHVPPTFGQGTKVEIERTVAAPSVFIFPPSDEQLKSGTASVVCLLNNFYPREAKVQWKVDNALQSGNSQESVTEQDSKDSTYSLSSTLTLSKADYEKHKVYACEVTHQGLSSPVTKSFNRGEC
notes: homodimerized; also called Ho Ab P238_06M
B14: GpH7-B3 variant P238_03V/GpL16-k0 (antibody, human IgG1, kappa)
heavy: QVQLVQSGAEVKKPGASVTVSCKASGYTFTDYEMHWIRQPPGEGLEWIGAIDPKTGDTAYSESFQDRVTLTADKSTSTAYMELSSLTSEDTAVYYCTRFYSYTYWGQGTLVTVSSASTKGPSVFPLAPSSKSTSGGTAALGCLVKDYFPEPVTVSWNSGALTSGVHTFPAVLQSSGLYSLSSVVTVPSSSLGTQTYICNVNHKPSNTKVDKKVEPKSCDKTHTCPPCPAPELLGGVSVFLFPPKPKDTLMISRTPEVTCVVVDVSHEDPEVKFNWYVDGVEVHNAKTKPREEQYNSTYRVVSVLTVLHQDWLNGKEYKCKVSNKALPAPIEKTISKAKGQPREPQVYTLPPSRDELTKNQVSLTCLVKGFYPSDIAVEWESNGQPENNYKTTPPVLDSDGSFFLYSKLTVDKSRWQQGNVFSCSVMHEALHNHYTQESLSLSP
light: DIVMTQSPLSLPVTPGEPASISCQASESLVHSNRNTYLHWYLQKPGQSPQLLIYKVSNRFSGVPDRFSGSGSGTDFTLKISRVEAEDVGVYYCSQNTHVPPTFGQGTKVEIERTVAAPSVFIFPPSDEQLKSGTASVVCLLNNFYPREAKVQWKVDNALQSGNSQESVTEQDSKDSTYSLSSTLTLSKADYEKHKVYACEVTHQGLSSPVTKSFNRGEC
notes: homodimerized; also called Ho Ab P238_03V
B15: GpH7-B3 variant P271_02A/GpL16-k0 (antibody, human IgG1, kappa)
heavy: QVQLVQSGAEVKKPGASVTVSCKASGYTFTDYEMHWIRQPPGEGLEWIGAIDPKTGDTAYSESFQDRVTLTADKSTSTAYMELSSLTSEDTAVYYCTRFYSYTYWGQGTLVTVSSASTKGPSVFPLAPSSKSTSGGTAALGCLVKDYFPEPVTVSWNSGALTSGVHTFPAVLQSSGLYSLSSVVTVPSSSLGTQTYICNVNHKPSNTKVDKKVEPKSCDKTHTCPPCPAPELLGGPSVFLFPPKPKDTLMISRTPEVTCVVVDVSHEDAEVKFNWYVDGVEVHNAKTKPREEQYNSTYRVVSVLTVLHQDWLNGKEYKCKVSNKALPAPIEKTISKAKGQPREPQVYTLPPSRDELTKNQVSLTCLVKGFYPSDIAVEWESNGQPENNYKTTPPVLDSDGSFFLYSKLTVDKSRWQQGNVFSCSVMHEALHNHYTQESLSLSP
light: DIVMTQSPLSLPVTPGEPASISCQASESLVHSNRNTYLHWYLQKPGQSPQLLIYKVSNRFSGVPDRFSGSGSGTDFTLKISRVEAEDVGVYYCSQNTHVPPTFGQGTKVEIERTVAAPSVFIFPPSDEQLKSGTASVVCLLNNFYPREAKVQWKVDNALQSGNSQESVTEQDSKDSTYSLSSTLTLSKADYEKHKVYACEVTHQGLSSPVTKSFNRGEC
notes: homodimerized; also called Ho Ab P271_02A
B16: GpH7-B3 variant P271_03V/GpL16-k0 (antibody, human IgG1, kappa)
heavy: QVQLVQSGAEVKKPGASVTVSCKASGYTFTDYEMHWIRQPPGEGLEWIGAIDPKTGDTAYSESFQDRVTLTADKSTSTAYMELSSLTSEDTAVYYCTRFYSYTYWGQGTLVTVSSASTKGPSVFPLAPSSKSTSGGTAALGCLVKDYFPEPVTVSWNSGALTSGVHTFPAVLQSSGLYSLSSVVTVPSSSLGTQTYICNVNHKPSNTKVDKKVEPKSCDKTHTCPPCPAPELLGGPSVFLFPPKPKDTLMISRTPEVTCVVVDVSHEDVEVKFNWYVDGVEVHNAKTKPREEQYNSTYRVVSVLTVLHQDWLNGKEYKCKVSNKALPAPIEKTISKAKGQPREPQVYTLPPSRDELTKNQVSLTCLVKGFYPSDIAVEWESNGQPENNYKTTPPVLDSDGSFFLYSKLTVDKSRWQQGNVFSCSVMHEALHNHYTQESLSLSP
light: DIVMTQSPLSLPVTPGEPASISCQASESLVHSNRNTYLHWYLQKPGQSPQLLIYKVSNRFSGVPDRFSGSGSGTDFTLKISRVEAEDVGVYYCSQNTHVPPTFGQGTKVEIERTVAAPSVFIFPPSDEQLKSGTASVVCLLNNFYPREAKVQWKVDNALQSGNSQESVTEQDSKDSTYSLSSTLTLSKADYEKHKVYACEVTHQGLSSPVTKSFNRGEC
notes: homodimerized; also called Ho Ab P271_03V
B17: GpH7-B3 variant L328_14T/GpL16-k0 (antibody, human IgG1, kappa)
heavy: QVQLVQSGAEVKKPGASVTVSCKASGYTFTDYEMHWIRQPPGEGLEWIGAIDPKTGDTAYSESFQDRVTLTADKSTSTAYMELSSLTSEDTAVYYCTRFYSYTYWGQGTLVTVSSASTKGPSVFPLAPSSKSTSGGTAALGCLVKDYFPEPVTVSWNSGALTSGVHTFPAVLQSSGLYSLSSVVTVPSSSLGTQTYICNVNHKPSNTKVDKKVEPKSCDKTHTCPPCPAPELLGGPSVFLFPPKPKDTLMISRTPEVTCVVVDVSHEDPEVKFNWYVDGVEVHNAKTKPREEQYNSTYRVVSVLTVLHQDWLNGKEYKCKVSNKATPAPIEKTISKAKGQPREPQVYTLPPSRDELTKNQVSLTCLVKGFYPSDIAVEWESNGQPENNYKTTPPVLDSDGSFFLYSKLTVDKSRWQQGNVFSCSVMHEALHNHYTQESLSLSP
light: DIVMTQSPLSLPVTPGEPASISCQASESLVHSNRNTYLHWYLQKPGQSPQLLIYKVSNRFSGVPDRFSGSGSGTDFTLKISRVEAEDVGVYYCSQNTHVPPTFGQGTKVEIERTVAAPSVFIFPPSDEQLKSGTASVVCLLNNFYPREAKVQWKVDNALQSGNSQESVTEQDSKDSTYSLSSTLTLSKADYEKHKVYACEVTHQGLSSPVTKSFNRGEC
notes: homodimerized; also called Ho Ab L328_14T
B18: GpH7-B3 variant P271_13S/GpL16-k0 (antibody, human IgG1, kappa)
heavy: not shown
light: DIVMTQSPLSLPVTPGEPASISCQASESLVHSNRNTYLHWYLQKPGQSPQLLIYKVSNRFSGVPDRFSGSGSGTDFTLKISRVEAEDVGVYYCSQNTHVPPTFGQGTKVEIERTVAAPSVFIFPPSDEQLKSGTASVVCLLNNFYPREAKVQWKVDNALQSGNSQESVTEQDSKDSTYSLSSTLTLSKADYEKHKVYACEVTHQGLSSPVTKSFNRGEC
notes: homodimerized; also called Ho Ab P271_13S
B19: GpH7-B3 variant L234_10E/GpL16-k0 (antibody, human IgG1, kappa)
heavy: not shown
light: DIVMTQSPLSLPVTPGEPASISCQASESLVHSNRNTYLHWYLQKPGQSPQLLIYKVSNRFSGVPDRFSGSGSGTDFTLKISRVEAEDVGVYYCSQNTHVPPTFGQGTKVEIERTVAAPSVFIFPPSDEQLKSGTASVVCLLNNFYPREAKVQWKVDNALQSGNSQESVTEQDSKDSTYSLSSTLTLSKADYEKHKVYACEVTHQGLSSPVTKSFNRGEC
notes: homodimerized; also called Ho Ab L234_10E; GpH7-B16/GpL16-k0
B20: GpH7-B3 variant P238_15Y/GpL16-k0 (antibody, human IgG1, kappa)
heavy: not shown
light: DIVMTQSPLSLPVTPGEPASISCQASESLVHSNRNTYLHWYLQKPGQSPQLLIYKVSNRFSGVPDRFSGSGSGTDFTLKISRVEAEDVGVYYCSQNTHVPPTFGQGTKVEIERTVAAPSVFIFPPSDEQLKSGTASVVCLLNNFYPREAKVQWKVDNALQSGNSQESVTEQDSKDSTYSLSSTLTLSKADYEKHKVYACEVTHQGLSSPVTKSFNRGEC
notes: homodimerized; also called Ho Ab P238_15Y
B21: GpH7-B3 variant P271_11K/GpL16-k0 (antibody, human IgG1, kappa)
heavy: not shown
light: DIVMTQSPLSLPVTPGEPASISCQASESLVHSNRNTYLHWYLQKPGQSPQLLIYKVSNRFSGVPDRFSGSGSGTDFTLKISRVEAEDVGVYYCSQNTHVPPTFGQGTKVEIERTVAAPSVFIFPPSDEQLKSGTASVVCLLNNFYPREAKVQWKVDNALQSGNSQESVTEQDSKDSTYSLSSTLTLSKADYEKHKVYACEVTHQGLSSPVTKSFNRGEC
notes: homodimerized; also called Ho Ab P271_11K
B22: GpH7-B3 variant P271_04F/GpL16-k0 (antibody, human IgG1, kappa)
heavy: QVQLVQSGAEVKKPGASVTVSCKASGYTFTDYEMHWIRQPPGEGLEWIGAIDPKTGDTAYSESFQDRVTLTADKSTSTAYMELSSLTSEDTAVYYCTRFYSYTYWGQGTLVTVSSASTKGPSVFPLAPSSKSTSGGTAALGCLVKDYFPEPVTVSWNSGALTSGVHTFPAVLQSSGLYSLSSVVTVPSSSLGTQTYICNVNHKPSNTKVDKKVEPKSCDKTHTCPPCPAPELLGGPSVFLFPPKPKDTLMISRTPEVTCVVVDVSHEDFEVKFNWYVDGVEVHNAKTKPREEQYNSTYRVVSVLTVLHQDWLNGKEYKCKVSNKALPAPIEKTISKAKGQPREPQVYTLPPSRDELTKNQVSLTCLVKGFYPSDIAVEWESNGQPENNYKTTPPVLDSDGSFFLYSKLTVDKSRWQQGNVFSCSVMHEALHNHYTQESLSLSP
light: DIVMTQSPLSLPVTPGEPASISCQASESLVHSNRNTYLHWYLQKPGQSPQLLIYKVSNRFSGVPDRFSGSGSGTDFTLKISRVEAEDVGVYYCSQNTHVPPTFGQGTKVEIERTVAAPSVFIFPPSDEQLKSGTASVVCLLNNFYPREAKVQWKVDNALQSGNSQESVTEQDSKDSTYSLSSTLTLSKADYEKHKVYACEVTHQGLSSPVTKSFNRGEC
notes: homodimerized; also called Ho Ab P271_04F

The target of this experiment is T1, FcγRIa (human, UniProt P12314 16-292).
T1 construct: extracellular domain; also called FcgRI; CD64
T1 sequence (P12314 16-292): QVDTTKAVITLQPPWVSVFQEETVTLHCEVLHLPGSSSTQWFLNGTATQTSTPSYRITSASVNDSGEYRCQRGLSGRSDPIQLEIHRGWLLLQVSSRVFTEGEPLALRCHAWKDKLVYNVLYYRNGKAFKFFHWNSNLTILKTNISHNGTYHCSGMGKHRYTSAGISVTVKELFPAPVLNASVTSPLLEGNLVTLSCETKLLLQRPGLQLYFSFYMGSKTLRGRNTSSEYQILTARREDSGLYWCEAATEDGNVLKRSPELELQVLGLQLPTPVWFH
Description: SPR; vs GpH7-B3/GpL16-k0=100. Background: In SPR one partner is held on a chip, and binding of the other changes the refractive index at the surface.
Consider B1, for which the Ho/Con_1a is 99.5 % of control.

Consider B2, for which the Ho/Con_1a was 102 % of control. B3: the Ho/Con_1a is 98.7 % of control.

With B4, the Ho/Con_1a is 101 % of control.

For the molecule B5, the Ho/Con_1a was 99.9 % of control. Then B6, with 91.8 % of control; and B7, with 99.3 % of control.

As for B8, the Ho/Con_1a was 99.2 % of control. Regarding B9, the Ho/Con_1a was 102 % of control. The result for B10 reads 98.9 % of control; that for B11, 101 % of control. Then B12, with 100 % of control; and B13, with 100 % of control; and B14, with 97.9 % of control.

For B15, the Ho/Con_1a was 102 % of control.

As for B16, the Ho/Con_1a is 102 % of control.

With B17, the Ho/Con_1a is 98.6 % of control. Consider B18, for which the Ho/Con_1a is 101 % of control.

B19: the Ho/Con_1a is 79.6 % of control. Consider B20, for which the Ho/Con_1a is 99 % of control. Then B21, with 101 % of control; and B22, with 100 % of control.
